Test results published in US12016935B2, “Methods for detecting CCR2 receptors” (Washington University, priority 2016, dated 2024).
Each block holds one compound with its values, some of them ahead of it. Where no end group is shown, it is not given here. [ ]: non-standard residue; d: D form.

Columns and labels:
[1] = Toxicity study in mice (serum chemistries, histology); assay type: in vivo, mouse; conditions: i.v. 110 μg, 500-fold the estimated human imaging dose; evaluated 24 h later
Protocol: Toxicity studies were performed by S. Greco, DVM (Dept. of Comparative Med., Washington Univ.).

[2] = mouse, in vivo
Protocol: C57BL/6 mice were used for the biodistribution studies. About 10 μCi of ^64Cu-DOTA-ECL1i in 100 μL saline (APP pharmaceuticals, Schaumburg, IL) were injected via the tail vein. The mice were anesthetized with inhaled isoflurane and re-anesthetized before euthanasia by cervical dislocation at each time point (1 hour after injection, n=4/group). Organs of interest were collected, weighed and counted in a Beckman 8000 gamma counter (Beckman, Fullterton, CA).

CCR2 [3] = molecular target: T1, CCR2 (Homo sapiens, UniProt P41597); experiment: Autoradiography on human lung tissue sections; assay type: binding; parameters: Fixed human lung tissue sections; from tissue; host or cells: human lung (COPD explants and donor lungs), fixed paraffin sections; conditions: lung tissue from subjects with COPD
Protocol: Fixed human lung tissue sections that were deparaffinized and hydrated in PBS were incubated with ^64Cu-DOTA-ECL1i for 5 min (n=4 donor, n=6 COPD). […] Slides were washed 30 times with water then placed in an instant imager (Packard, Meriden, CT) for 30 minutes.
Target sequence in this assay (P41597 whole entry): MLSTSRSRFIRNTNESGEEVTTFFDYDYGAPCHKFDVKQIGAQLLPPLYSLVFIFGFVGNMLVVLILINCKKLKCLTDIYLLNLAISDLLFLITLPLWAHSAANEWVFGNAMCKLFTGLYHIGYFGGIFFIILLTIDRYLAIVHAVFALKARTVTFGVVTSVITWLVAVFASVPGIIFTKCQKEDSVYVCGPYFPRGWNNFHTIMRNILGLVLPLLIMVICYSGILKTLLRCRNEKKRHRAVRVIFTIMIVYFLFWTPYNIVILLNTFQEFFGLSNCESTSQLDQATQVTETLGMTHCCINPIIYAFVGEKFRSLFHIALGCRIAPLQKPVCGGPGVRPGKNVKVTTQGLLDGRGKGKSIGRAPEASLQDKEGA

[4] = mouse, in vivo; remark: listed apart in the source
Protocol: After euthanasia, 1 h post-radiotracer injection, organs of interest were collected, weighed and assayed by gamma counter (Beckman, Brea, CA) as described (23). Standards were prepared and measured in parallel to calculate the percentage of the injected dose per gram of tissue (% ID/g).

CCR2 [5] = molecular target: T2, CCR2 (Mus musculus, UniProt P51683)
T2 sequence (P51683 whole entry): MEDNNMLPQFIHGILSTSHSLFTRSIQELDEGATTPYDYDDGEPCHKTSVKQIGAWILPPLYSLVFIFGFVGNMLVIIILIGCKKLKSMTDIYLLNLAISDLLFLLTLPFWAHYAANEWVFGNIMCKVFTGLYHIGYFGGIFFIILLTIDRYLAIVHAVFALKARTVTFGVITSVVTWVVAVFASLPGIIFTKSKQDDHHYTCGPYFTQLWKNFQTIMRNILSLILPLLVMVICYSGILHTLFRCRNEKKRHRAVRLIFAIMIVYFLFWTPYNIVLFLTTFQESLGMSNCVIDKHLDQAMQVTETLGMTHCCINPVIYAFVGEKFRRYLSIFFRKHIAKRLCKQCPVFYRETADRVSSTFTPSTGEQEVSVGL
Protocol: Instead of a dynamic scan, a static scan was performed at 1, 4 and 24 hours after injection. The PET images were reconstructed with the maximum a posteriori algorithm and analyzed by Inveon Research Workplace. The organ uptake was calculated as percent injected dose per gram (% ID/g) of tissue in three-dimensional regions of interest without the correction for partial volume effect (14).

[6] = system: CD45^+ immune cells in COPD lung; experiment: Flow cytometry of cells digested from human COPD lung; assay type: cell-based
Protocol: There were three CCR2 phenotypes (high, intermediate, normal), with implications for future therapies. […] Our tissue bank also includes cells digested from lung for flow cytometry studies. […] We obtain approximately 6-8 explanted lungs per year from COPD subjects. We propose to also examine lung tissue incubated with ECL1i-647 and cells specific antibodies using two-photon microscopy to localize ECL1i.

human CX3CR1 = molecular target: T3, human CX3CR1 (Homo sapiens, UniProt P49238); experiment: Migration of cells expressing human CX3CR1; assay type: cell-based
T3 construct: expressed in transfected cells
T3 sequence (P49238 1-355): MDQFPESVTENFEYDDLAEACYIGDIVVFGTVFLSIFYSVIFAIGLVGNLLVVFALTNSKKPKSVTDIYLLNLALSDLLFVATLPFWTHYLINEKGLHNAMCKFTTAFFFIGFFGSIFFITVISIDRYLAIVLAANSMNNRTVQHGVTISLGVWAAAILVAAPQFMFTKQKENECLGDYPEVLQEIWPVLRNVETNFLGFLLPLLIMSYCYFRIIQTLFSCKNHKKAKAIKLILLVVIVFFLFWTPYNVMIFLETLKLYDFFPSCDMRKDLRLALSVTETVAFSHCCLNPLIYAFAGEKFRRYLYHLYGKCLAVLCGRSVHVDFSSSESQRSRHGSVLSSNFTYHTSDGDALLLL

human CCR2 (hCCR2) = molecular target: T4, human CCR2 (hCCR2) (Homo sapiens, UniProt P41597); experiment: CCL2-induced chemotaxis in CHO cells that stably express human CCR2; assay type: cell-based
T4 construct: expressed in transfected cells; host or cells: CHO
T4 sequence (P41597 whole entry): as the sequence (P41597 whole entry) above
Description: (§1) CCR2^+ cells migrate in response to CCL2.

CCR2 [7] = molecular target: T1, CCR2; experiment: Binding of fluorescently-labeled CCL1 to CCR2-expressing HEK293 cells; parameters: expressed in transfected cells; host or cells: HEK293
Description: as §1
Target sequence in this assay (P41597 whole entry, species assumed): as the sequence (P41597 whole entry) above

human CCR5 = molecular target: T5, human CCR5 (Homo sapiens, UniProt P51681); experiment: Migration of cells expressing human CCR5; assay type: cell-based
T5 construct: expressed in transfected cells
T5 sequence (P51681 whole entry): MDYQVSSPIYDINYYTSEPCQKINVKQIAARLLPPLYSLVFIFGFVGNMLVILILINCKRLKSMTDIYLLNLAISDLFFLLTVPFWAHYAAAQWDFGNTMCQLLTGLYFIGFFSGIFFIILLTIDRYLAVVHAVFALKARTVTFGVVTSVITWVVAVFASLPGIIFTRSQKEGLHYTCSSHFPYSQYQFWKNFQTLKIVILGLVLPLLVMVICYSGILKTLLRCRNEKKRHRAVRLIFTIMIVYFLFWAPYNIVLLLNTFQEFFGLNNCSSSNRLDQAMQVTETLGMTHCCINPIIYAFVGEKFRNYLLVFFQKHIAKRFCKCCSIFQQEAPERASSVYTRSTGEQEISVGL

CCR2 [8] = molecular target: T1, CCR2; parameters: expressed in transfected cells; host or cells: HEK293; conditions: compared to CCL2 ligand in vitro; cited from earlier work
Target sequence in this assay (P41597 whole entry, species assumed): as the sequence (P41597 whole entry) above

CCR2 [9] = molecular target: T2, CCR2; experiment: PET/CT imaging in LPS mouse lung injury model; assay type: in vivo; parameters: tissue The Jackson Laboratories; host or cells: C57BL/6 mice, lung and aortic arch in vivo (CCR2+ monocytes/macrophages); conditions: PET
Description: The Institutional Animal Care and Use Committee approved these studies. Wild type (n=77) and CCR2-deficient (CCR2^−/−, n=4) mice (C57BL6/J strain) were 8 to 12 weeks of age, of both sexes and approximately 25 g in weight. Mice were used for radiotracer stability studies (n=3) and lung injury studies that included: immunostaining for CCR2 (n=6), in vivo immune cell peptide binding (n=18), lung water weight measurements (n=6), in vivo biodistribution (n=12) and PET/CT imaging (n=36). For the lung injury studies, mice were not treated (naive, n=8), administered intratracheal vehicle control, phosphate buffered saline (PBS, 1 μL/g, n=26) or lipopolysaccharide (LPS, endotoxin, E. coli strain 055:B5, Sigma-Aldrich, St. Louis, MO), at a dose of 2.5 μg/g (n=44), “high” dose, 10 μg/g (n=3), or “low” dose, 0.5 μg/g (n=3) LPS. All CCR2-deficient mice were administered an LPS dose of 2.5 μg/g. Lung water was quantified using wet-to-dry weight ratios in PBS- or intermediate dose LPS-treated mice (n=3/group). Lungs were resected and weighted immediately, then compared to weights obtained after drying at 65° C. for 48 h.
Time-activity curves were calculated from the ROIs from PET images obtained in a subgroup (n=3/group) of the PBS- and LPS-treated mice undergoing imaging at 24 h. […]

human CCR1 = molecular target: T6, human CCR1 (Homo sapiens, UniProt P32246); experiment: Migration of cells expressing human CCR1; assay type: cell-based
T6 construct: expressed in transfected cells
T6 sequence (P32246 1-355): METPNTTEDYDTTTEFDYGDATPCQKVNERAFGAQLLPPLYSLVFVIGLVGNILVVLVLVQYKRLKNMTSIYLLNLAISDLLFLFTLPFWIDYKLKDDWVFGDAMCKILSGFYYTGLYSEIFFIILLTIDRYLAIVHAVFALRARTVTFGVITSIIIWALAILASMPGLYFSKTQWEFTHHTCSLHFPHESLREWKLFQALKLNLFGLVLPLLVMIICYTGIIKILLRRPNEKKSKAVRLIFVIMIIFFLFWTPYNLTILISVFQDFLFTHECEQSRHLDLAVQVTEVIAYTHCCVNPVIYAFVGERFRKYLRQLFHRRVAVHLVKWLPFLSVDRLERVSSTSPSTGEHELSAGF

[10] = system: CCR2^+ inflammatory monocytes; experiment: CCL2-mediated chemotaxis of monocytes; assay type: cell-based
Description: as §1

[11] = system: monocytes (Ly6G^lo, Ly6C^hi); experiment: Flow cytometry of lung immune cells binding ECL1i-Dylight 550 in vivo; parameters: species or system mouse; conditions: injected i.v. 24 h post LPS; lungs analyzed one hour later
Protocol: Mice (n=4 PBS, n=5 LPS) delivered intratracheal PBS or LPS, and 24 hours later were injected intravenously with ECL1i labeled with Dylight 550 (100 μg) to determine the type of inflammatory cell binding ECL1i. Other mice were treated in parallel but not given ECL1i-Dylight 550 (n=4 PBS, n=5 LPS). One h post-injection, a single cell suspension was produced from the lungs, immunostained with immune cell markers (TABLE 2) and analyzed by flow cytometry.
Mice delivered intratracheal PBS or LPS were injected intravenously with ECL1i labeled with Dylight 550, as with the radiolabeled probe, to determine the type of inflammatory cell binding ECL1i. […] Cells were suspended in FACS buffer, counted by hemocytometer, and prepared for flow cytometry. […] Counts from 1 to 10×10^4 cells were collected for each sample on a FACSCalibur (Becton Dickinson), dual laser, flow cytometer using CellQuest Pro software (BD Biosciences), and analyzed using FlowJo software (Ashland, OR). The mean fluorescent intensity was determined by calculating the geometric mean of Dylight 550 fluorescence of the cell types identified in ECL1i-Dylight 550-injected mice and subtracting the fluorescent background of the same cell types from similarly treated mice not injected with ECL1i-Dylight 550.

Compound: CC(C)C[C@@H](N)C(=O)NCC(=O)N[C@@H](C(=O)N[C@H](Cc1ccccc1)C(=O)N[C@H](CC(C)C)C(=O)N[C@H](CCCCN)C(=O)N[C@H](CSC1CC(=O)N(CCNC(=O)CN2CCN(CC(=O)O)CCN(CC(=O)O)CCN(CC(=O)O)CC2)C1=O)C(=O)O)[C@H](C)O (single isomer, unassigned) [Cu-DOTA-ECL1i]
- toxicity findings [1]: normal serum hepatic and renal chemistries, and histologic examination of lung, liver and kidneys

Compound: CC(C)C[C@@H](N)C(=O)NCC(=O)N[C@@H](C(=O)N[C@H](Cc1ccccc1)C(=O)N[C@H](CC(C)C)C(=O)N[C@H](CCCCN)C(=O)N[C@H](CSC1CC(=O)N(CCNC(=O)CN2CCN(CC(=O)O)CCN(CC(=O)O)CCN(CC(=O)O)CC2)C1=O)C(=O)O)[C@H](C)O (single isomer, unassigned) [^64Cu-DOTA-ECL1i, metal not drawn]
- uptake in the donor lung relative to native lung (biodistribution) [2]: more than twice
- specificity determined by non-radioactive blockade (CCR2 [3]): 54.5%
- blood retention, LPS versus PBS treated mice [4]: no difference in blood retention
- PET signal in the grafts blocked by competitive receptor blocking (CCR2 [5]; transplantation into wild type recipients, excess ECL1i): approximately 75%

- inhibition of migration (human CX3CR1): did not inhibit the migration
- induction of migration of CHO-hCCR2 cells (human CCR2 (hCCR2); at concentrations that inhibited CCL2 signaling): did not induce the migration
- effect on binding of fluorescently-labeled CCL1 (CCR2 [7]): did not prevent the binding
- inhibition of migration (human CCR5): did not inhibit the migration
- inhibition of migration (human CCR1): did not inhibit the migration
Compound: DLeu-Gly-DThr-DPhe-DLeu-DLys-DCys ([dL]G[dT][dF][dL][dK][dC]) [ECL1i]
- binding to human lung cells [6]: bound a population of CD45^+ immune cells
- inhibition of CCL2-induced chemotaxis (human CCR2 (hCCR2); concentration-dependent manner): specifically inhibited CCL2-induced chemotaxis
- CCR2 binding mode (CCR2 [8]): selectively bind CCR2 in a non-competitive way
- activity in lungs after intratracheal lipopolysaccharide relative to saline control group (CCR2 [9]): 3.5 fold
- inhibition of CCL2-mediated chemotaxis of monocytes [10]: inhibited CCL2-mediated chemotaxis of CCR2^+ inflammatory monocytes, but not of resident monocytes

Compound: ECL1i-Dylight 550: Maleimide-modified Dylight 550 conjugated to ECL1i on the cysteine residue ([dL]G[dT][dF][dL][dK][dC](Dylight 550 maleimide))
- binding to monocytes (Ly6G^lo, Ly6C^hi) induced by LPS [11]: significant binding

- share of accumulation in pulmonary grafts due to CCR2-mediated uptake (CCR2 [5]; accumulation of ^64CuAuNCs in native lungs set as background): more than 80%
Compound: ^64CuAuNCs-ECL1i: ECL1i-conjugated gold nanoclusters doped with ^64Cu; multivalent targeted nanocluster ([dL]G[dT][dF][dL][dK][dC]; also: joined via TA-PEG-Maleimide to a gold nanocluster doped with 64Cu, attachment site not given here)
- retention in the blood relative to monovalent ^64Cu-DOTA-ECL1i [2]: six-fold higher
